The values that follow come from publication PMC3699403.

Assay [1] addresses STM3605f, full-length Se-labeled non-methylated variant (Salmonella enterica serovar Typhimurium LT2). The assay can be described thus: crystal structure.
Assay [2] addresses STM3605t (STM3605 residues 5-107, SeMet-labeled and reductively methylated) (Salmonella enterica serovar Typhimurium LT2). The assay can be described thus: crystal structure.

“STM3605f, full-length Se-labeled non-methylated variant (natural protein)” came in with a stoichiometry N in assay [1] of 2.
“STM3605t (STM3605 residues 5-107, SeMet-labeled and reductively methylated) (domain or fragment)” came in with a stoichiometry N in assay [2] of 2.

Usually stoichiometry N stands for the number of molecules, sites or subunits per partner or assembly.
